# Patent US20230227406
# Biological target: PTEN (substrate in the in vitro ubiquitination reaction) (UniProt P60484)
# Sequence (P60484 whole entry): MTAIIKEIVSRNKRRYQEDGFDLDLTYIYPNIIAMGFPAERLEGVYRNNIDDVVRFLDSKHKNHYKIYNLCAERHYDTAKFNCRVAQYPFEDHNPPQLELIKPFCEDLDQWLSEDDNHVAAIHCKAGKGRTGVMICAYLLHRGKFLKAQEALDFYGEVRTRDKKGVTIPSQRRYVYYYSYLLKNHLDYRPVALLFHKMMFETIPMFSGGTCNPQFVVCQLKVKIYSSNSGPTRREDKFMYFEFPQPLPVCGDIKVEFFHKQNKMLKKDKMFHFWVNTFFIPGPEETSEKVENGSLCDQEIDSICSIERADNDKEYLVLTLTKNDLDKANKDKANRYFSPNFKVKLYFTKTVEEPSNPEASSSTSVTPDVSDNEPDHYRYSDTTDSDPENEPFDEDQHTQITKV
substance,measurement,value
"WWP1 ligase (recombinant, Ubiquigent #63-0034-025)","in vitro ubiquitination reaction, TMT LC-MS/MS of ubiquitin sites on PTEN","Specific ubiquitin sites on PTEN demonstrate greater occupancy (e.g., K237 and K342) when K27-only ubiquitin is used in the reaction vs wild type ubiquitin"
same,"in vitro ubiquitination reaction, western blot using an anti-ubiquitin antibody","in the presence of K27 only ubiquitin, PTEN substrate ubiquitin is preferred. PTEN is readily ubiquitinated with non-chain forming ubiquitin"
